The text below walks through data of paper PMC8854693, “Development and characterization of functional antibodies targeting NMDA receptors” (Nature Communications, 2022).

Assay [1] has as its target T1, purified intact rat GluN1a-GluN2B NMDA receptor (Rattus norvegicus, UniProt P35439;Q00960).
T1 construct: rat GluN1a (GluN1-1a splice variant, without the exon 5-encoded motif); called intact; rat GluN2B; the immunogen and the ELISA antigen
Briefly: ELISA; 96-well MaxiSorp plates covered by the GluN1a-GluN2B NMDAR proteins, in the presence of 0.005% LMNG (methods; 0.01% in the results); state of the IgG not told. For orientation: In an ELISA, binding on a coated surface is turned into a signal by an enzyme label.

Assay [2] concerns the target T2, intact GluN1b-GluN2B NMDA receptor (Rattus norvegicus, strain).
T2 construct: called intact; density seen for ATD, LBD and TMD; rat GluN2B; heterotetramer; Also used here for the functional rows on receptors expressed in oocytes or HEK293 cells from wild-type rat cRNA or cDNA; also called GluN1-1b-GluN2B; GluN1b-2B; source: Sf9 insect cells (EarlyBac), solubilised in 0.5% LMNG, purified (Strep-Tactin Sepharose, Superose 6); copies: 2 + 2
Briefly: cryo-EM structure; receptor mixed with Fab at 1:3 (w:w), purified on Superose 6; 1 mM glycine and 1 mM glutamate; 0.002% LMNG, 0.1% digitonin. Conditions: both partners purified.

B1: IgG5, mouse monoclonal antibody against the GluN1-GluN2B NMDA receptor (antibody, V domains shown)
VH: DVKLQESGGGSVKLGGSLKLSCVVSGFTFSTYYMSWVRQTPEKRLELVAVINSNGGNTYYPDNVKGRFTISRDNAENTLYLQMSSLKSEDTALYYCARRDYDGFAMDYWGQGTSVTVSS
VL: DIQLTQSPASLAVSLGQRATISCRASQSVSTSRYSYMHWYQHKPGQPPKLLIKYASNLESGVPARFSGSGSGTDFTLNIHPVEEEDTATYYCQHSWENPYTFGGGTKLEIK
notes: the Fab part of the heavy chain is in the crystal structure of GluN1b-GluN2B ATD-Fab5 (PDB 7TE6) and in the cryo-EM models; the light chain is in the crystal structure of GluN1b-GluN2B ATD-Fab5 (PDB 7TE6) and in the cryo-EM models; mouse immunoglobulin-gamma; source: hybridoma cell culture supernatant, purified (rProtein-A Sepharose)
For B1, the binding result in assay [1] was “binds”.

B2: IgG2, mouse monoclonal antibody against the GluN1-GluN2B NMDA receptor (antibody, V domains shown)
VH: DVKLQESGGGLVQPGGSLKLSCAASGFTFSSYTMSWVRQTPEKRLEWVAYISNGGGGTYYPDTVKGRFTISRDNAKNTLYLQMNSLKEDTAMYYCARPSRGGSSYWYFDVWGAGTTVTVSS
VL: DIQMTQSPSSLSASLGGKVTITCKASQDINKYIAWYQHKPGKGPRLLIHYTSSLQPGIPSRFSGSGSGRDYSFSISNLEPEDIATYYCLQYDNLYTFGGGTKLEIK
notes: the Fab part of the heavy chain is in the crystal structure of Fab2 (PDB 7TE4) and in the cryo-EM models; the light chain is in the crystal structure of Fab2 (PDB 7TE4) and in the cryo-EM models; mouse immunoglobulin-gamma; raised against purified intact rat GluN1a-GluN2B NMDAR; source: hybridoma cell culture supernatant, purified (rProtein-A Sepharose)
B2: the binding result in assay [1] is “binds”.

B3: Fab2, antigen-binding fragment of IgG2 (Fab, V domains shown)
VH: B2 VH
VL: B2 VL
notes: heavy chain of the crystal structure of Fab2 (PDB 7TE4); as the Fab part of the heavy chain of m1; light chain of the crystal structure of Fab2 (PDB 7TE4); as the light chain of m1; source: papain proteolysis of purified IgG2, Fc removed on rProtein-A Sepharose
As to B3, the “stoichiometry N” value in assay [2] is 2 Fab2 per heterotetrameric channel.
